US20240409629A1 (CHIA TAI TIANQING PHARMACEUTICAL GROUP, published 2024)
Numbering of substitutions follows the chain as printed. Read-outs that look alike come from different tables or passages of the source.

B1: chimeric antibody xi28G3 (antibody, human IgG1, kappa, V domains shown)
VH: EIQLQQTGPELVKPGASVTISCKTSGYSFTDYLMLWVKQSHGKSLEWIGNINPYYGRTTYNLKFKGKATLTVDRSSSTAYMQLNSLTSEDSAVYYCARDGYSLRNAMDYWGQGTSVTVSS
VL: DIVMTQSPYSLSVSTGEKVTMSCKSSQSLFNSGNQKNYLAWYQQKPGQPPKLLIYGASTRESGVPDRFTGSGSGTDFTLTISSVQAEDLALYYCQNAHSYPYTFGGGTKLEIKR
notes: Mouse variable regions on human IgG1/kappa; defucosylated, expressed in FUT8-knockout CHO-S cells; also called chimeric 28G3
B2: chimeric antibody xi40F6 (antibody, human IgG1, kappa, V domains shown)
VH: QVQLKESGPGLVAPSQSLSITCTVSGFSLTSYGVYWVRQSPGKGLEWLGVVWAGGNTNYNSALMSRLSISKDNSKSQVFLKMNSLQTDDTAMYYCARDRGRLLAMDYWGQGTSVTVSS
VL: B1 VL with I2V, Y9S, T15A, F30L, L91V, A97D, S99F, Y100F, Y102F, G106S
notes: Mouse variable regions on human IgG1/kappa; defucosylated, expressed in FUT8-knockout CHO-S cells; also called chimeric 40F6
B3: chimeric antibody xi22F12 (antibody, human IgG1, kappa, V domains shown)
VH: B2 VH with S40P, V51I, N56S, S70N, A104S
VL: DIVMTQSPSSLSVSAGEKVTMSCRSSQSLLNSGNQKNYLAWYQQKPGQPPKLLIYGASTRESGVPDRFTGSGSGTDFTLTIGSVQAEDLAVYYCQNVHFFPFTFGSGTKLEIKR
notes: Mouse variable regions on human IgG1/kappa; defucosylated, expressed in FUT8-knockout CHO-S cells; also called chimeric 22F12
B4: IMAB362 (antibody, human IgG1, kappa, V domains shown)
VH: QVQLQQPGAELVRPGASVKLSCKASGYTFTSYWINWVKQRPGQGLEWIGNIYPSDSYTNYNQKFKDKATLTVDKSSSTAYMQLSSPTSEDSAVYYCTRSWRGNSFDYWGQGTTLTVSS
VL: B3 VL with S12T, S14T, R24K, A40T, G56W, G82S, V97D, H98Y, F99S, F100Y
notes: Positive control, prepared in-house; also called Claudiximab; TMAB362 [sic]
B5: chimeric antibody xi34G6 (antibody, human IgG1, kappa, V domains shown)
VH: QVQLKESGPDLVAPSQSLSITCTVSGFSLTSYGVHWVRQPPGKGLEWLVVIWSDGSTTYNSALKSRLSISKDNSKSQVFLKMNSLQTDDTAIYYCARHAYYGNSFDYWGQGTTLTVSS
VL: DIVMTQSPSSLTVTAGEKVTMSCKSSQSLLNSGNQKSYLTWYQQKPGQPPKLLIYWASTRESGVPDRFTGSGSGTDFTLTISSVQAEDLAVYYCQNVYIFPLTFGAGTKLELKR
notes: Mouse variable regions on human IgG1/kappa; defucosylated, expressed in FUT8-knockout CHO-S cells; also called chimeric 34G6
B6: chimeric antibody xi10D8 (antibody, human IgG1, kappa, V domains shown)
VH: QIQLAQSGPELKKPGETVKVSCKASGYTFKNYGMNWVKQAPGKGLKWMGWININTGEPRYAEEFKGRIAFSLETSASTAYLLINNLKNEDTATYFCARYGYGNSFPYWGQGTLVTVSA
VL: B5 VL with A15V, K36R, S37N, D76A, I81V, V97D, I99S, F100Y, L112M
notes: Mouse variable regions on human IgG1/kappa; defucosylated, expressed in FUT8-knockout CHO-S cells; also called chimeric 10D8

What was measured:
[1] = molecular target: human CLDN18.2 (human); test: cell-based or functional assay
[2] = molecular target: T1, human CLDN18.1 (human, UniProt P56856 1-261); test: FACS, U2OS-CLDN18.1 cells, antibody at 200 nM
T1 construct: also called claudin18.1
Experimental: (§1) Based on the FACS method, the binding activity of anti-CLDN18.2 antibodies for the cell line U2OS-CLDN18.1 overexpressing CLDN18.1 (SEQ ID NO: 2) was analyzed. The cell concentration was adjusted with PBS, and the U2OS-CLDN18.1 cells were added to a 96-well plate at 3×10⁵ cells/well, then the test antibodies were added to each well of the 96-well plate, the final concentration of the antibody was 200 nM, and the mixture was incubated at 4° C. for 60 min. The supernatant was discarded, the cells were washed 3 times with pre-cooled PBS buffer, PE-Goat Anti-Human IgG Fcγ (Jackson immunoresearch, Cat. No. 109-116-170) diluted at 1:200 was added at 100 μL/well, and the mixture was incubated at 4° C. for 30 min. Cells were washed 3 times with pre-cooled PBS buffer and resuspended in 100 μL of PBS buffer, and then the fluorescence signals were detected using a flow cytometer (Sartorius, iQUE3). The nonspecific binding of the anti-CLDN18.2 antibodies for U2OS-CLDN18.1 cells was measured by mean fluorescence intensity (MFI) of staining. The IgG1 isotype control antibody (prepared in-house, with the heavy and light chain amino acid sequences as set forth in SEQ ID NOs: 67 and 68 in the present disclosure) was used as the control, and 2-fold the IgG1 isotype control antibody was used as the benchmark, thus determining the presence or absence of nonspecific binding.

[3] = molecular target: human CLDN18.2 (human); test: cell-based or functional assay; remark: listed apart in the source
[4] = molecular target: T2, human CLDN18.2 (human); test: FACS, KATOIII cells (natural CLDN18.2)
T2 construct: also called claudin18.2
Experimental: (§2) Based on the FACS method, the binding activity of anti-CLDN18.2 antibodies for the cell line U2OS-CLDN18.2 overexpressing CLDN18.2 and the cell lines KATOIII (Cell Bank of the Chinese Academy of Sciences) and NUGC-4 (Cell Bank of the Chinese Academy of Sciences) naturally expressing CLDN18.2 was analyzed.
(§3) The cell concentration was adjusted with PBS, and cells (U2OS-CLDN18.2, KATOIII, or NUGC-4 cells) were added to a 96-well plate at 3×10⁵ cells/well, then the test antibodies at different concentrations were added to each well of the 96-well plate, and the mixture was incubated at 4° C. for 60 min. […] The supernatant was discarded, the cells were washed 3 times with pre-cooled PBS buffer, PE-Goat Anti-Human IgG Fcγ (Jackson immunoresearch, Cat. No. 109-116-170) diluted at 1:200 was added at 100 μL/well, and the mixture was incubated at 4° C. for 30 min. Cells were washed 3 times with pre-cooled PBS buffer and resuspended in 100 μL of PBS buffer, and then the fluorescence signals were detected using a flow cytometer (Sartorius, iQUE3). The binding ability of the anti-CLDN18.2 antibodies for CLDN18.2 was measured by mean fluorescence intensity (MFI) of staining.

[5] = molecular target: T2, human CLDN18.2; test: FACS, NUGC-4 cells (natural CLDN18.2)
Experimental: (§4) Based on the FACS method, the binding activity of anti-CLDN18.2 humanized antibodies for the cell lines KATOIII (Cell Bank of the Chinese Academy of Sciences) and NUGC-4 (Cell Bank of the Chinese Academy of Sciences) naturally expressing CLDN18.2 was analyzed. […] See Example 3 for the specific method.

[6] = molecular target: T2, human CLDN18.2; test: FACS, NUGC-4 cells (natural CLDN18.2); remark: listed apart in the source
Experimental: as §2, §3

[7] = molecular target: T2, human CLDN18.2; test: cell-based or functional assay; remark: listed apart in the source
[8] = molecular target: T2, human CLDN18.2; test: cell-based or functional assay; remark: listed apart in the source
[9] = molecular target: T2, human CLDN18.2; test: cell-based or functional assay; remark: listed apart in the source
[10] = molecular target: T2, human CLDN18.2; test: FACS, U2OS-CLDN18.2 cells
Experimental: as §2, §3

[11] = molecular target: T1, human CLDN18.1; test: FACS, U2OS-CLDN18.1 cells; MFI against 2-fold the IgG1 isotype control
Experimental: as §1

[12] = molecular target: T2, human CLDN18.2; test: cell-based or functional assay; remark: listed apart in the source
[13] = molecular target: T2, human CLDN18.2; test: FACS, KATOIII cells (natural CLDN18.2); remark: listed apart in the source
Experimental: as §4

[14] = molecular target: T2, human CLDN18.2; test: FACS, NUGC-4 cells (natural CLDN18.2); remark: listed apart in the source
Experimental: as §4

[15] = molecular target: T2, human CLDN18.2; test: cell-based or functional assay; remark: listed apart in the source
[16] = molecular target: T2, human CLDN18.2; test: FACS, NUGC-4 cells (natural CLDN18.2); remark: listed apart in the source
Experimental: as §2, §3

[17] = molecular target: T2, human CLDN18.2; test: FACS, KATOIII cells (natural CLDN18.2); remark: listed apart in the source
Experimental: as §2, §3

[18] = molecular target: T2, human CLDN18.2; test: FACS, U2OS-CLDN18.2 cells; remark: listed apart in the source
Experimental: as §2, §3

[19] = molecular target: T2, human CLDN18.2; test: FACS, KATOIII cells (natural CLDN18.2); remark: listed apart in the source
Experimental: as §4

[20] = molecular target: T2, human CLDN18.2; test: cell-based or functional assay; remark: listed apart in the source
[21] = molecular target: T2, human CLDN18.2; test: FACS, U2OS-CLDN18.2 cells; remark: listed apart in the source
Experimental: as §2, §3

[22] = molecular target: T2, human CLDN18.2; test: FACS, NUGC-4 cells (natural CLDN18.2); remark: listed apart in the source
Experimental: as §2, §3

Binder | ADCC EC50, PBMC effector cells, KATOIII target cells [1] | ADCC EC50, PBMC effector cells, NUGC-4 target cells [1] | ADCC Maximum killing (%), PBMC effector cells, KATOIII target cells [1] | ADCC Maximum killing (%), PBMC effector cells, NUGC-4 target cells [1] | MFI [2] | ADCC EC50, Jurkat-CD16a v158-NFAT-luciferase effector cells, KATOIII target cells [3] | ADCC EC50, Jurkat-CD16a v158-NFAT-luciferase effector cells, U2OS-CLDN18.2 target cells [3] | EC50 [4] | EC50 [5] | EC50 [6] | ADCC EC50, Jurkat-CD16a v158-NFAT-luciferase effector cells, KATOIII target cells [9] | ADCC EC50, Jurkat-CD16a v158-NFAT-luciferase effector cells, NUGC-4 target cells [9] | ADCC EC50, Jurkat-CD16a v158-NFAT-luciferase effector cells, U2OS-CLDN18.2 target cells [9] | EC50 [10] | binding result [11] | CDC EC50, KATOIII target cells [12] | CDC EC50, U2OS-CLDN18.2 target cells [12] | EC50 [13] | EC50 [14] | EC50 [17] | other results
B1 | 38.4 nM | 0.44 nM | 76.8% | 43.3% | 7560 | 0.043 nM | 0.018 nM | 3.31 nM | 44.1 nM | 21.2 nM | 0.03 nM | 0.121 nM | 0.028 nM | 7.78 nM | no binding (tested: 200 nM) | 0.112 nM | 1.58 nM | 6.63 nM | – | – | CDC EC50, NIH-3T3-CLDN18.2 target cells [7]: 0.27 nM; ADCC EC50, PBMC effector cells, KATOIII target cells [8]: 0.82 nM; ADCC EC50, PBMC effector cells, NIH-3T3-CLDN18.2 target cells [8]: 0.54 nM; ADCC EC50, PBMC effector cells, NUGC-4 target cells [8]: 3.26 nM; ADCC Maximum killing (%), PBMC effector cells, KATOIII target cells [8]: 29.9%; ADCC Maximum killing (%), PBMC effector cells, NIH-3T3-CLDN18.2 target cells [8]: 47%; ADCC Maximum killing (%), PBMC effector cells, NUGC-4 target cells [8]: 22.5%
B2 | – | 0.8 nM | – | 45.2% | 7070 | – | – | – | – | – | 0.03 nM | 0.147 nM | 0.032 nM | – | no binding (tested: 200 nM) | 0.127 nM | 1.07 nM | – | 12.5 nM | 5.97 nM | CDC EC50, NIH-3T3-CLDN18.2 target cells [15]: 0.29 nM; EC50 [16]: 12.5 nM; EC50 [18]: 4.47 nM; EC50 [19]: 7.02 nM; ADCC EC50, Jurkat-CD16a v158-NFAT-luciferase effector cells, NIH-3T3-CLDN18.2 target cells [20]: 0.014 nM; ADCC EC50, Jurkat-CD16a v158-NFAT-luciferase effector cells, NUGC-4 target cells [20]: ~0.014 nM
B3 | – | 0.68 nM | – | 46.1% | 8940 | – | – | 3.68 nM | – | 20 nM | 0.02 nM | 0.083 nM | 0.02 nM | 25.1 nM | no binding (tested: 200 nM) | 0.103 nM | 2.09 nM | – | – | – | –
B4 | ~0.123 nM | 37.1 nM | 20.7% | 29.1% | 6220 | 16.9 nM | 0.014 nM | 81.3 nM | 293 nM | 1450 nM | 1.52 nM | 12 nM | 0.05 nM | 16 nM | – | 12.8 nM | 9.79 nM | 16.3 nM | 567 nM | ~26900 nM | CDC EC50, NIH-3T3-CLDN18.2 target cells [15]: 24.4 nM; EC50 [16]: 567 nM; EC50 [21]: 16.2 nM; EC50 [18]: 22.9 nM; EC50 [22]: 202 nM; EC50 [19]: 38.2 nM; ADCC EC50, Jurkat-CD16a v158-NFAT-luciferase effector cells, NIH-3T3-CLDN18.2 target cells [20]: 0.023 nM; ADCC EC50, Jurkat-CD16a v158-NFAT-luciferase effector cells, NUGC-4 target cells [20]: 0.856 nM
B5 | – | 0.62 nM | – | 40.9% | 7630 | – | – | – | – | – | 0.064 nM | 0.214 nM | 0.06 nM | – | no binding (tested: 200 nM) | 0.302 nM | 1.77 nM | – | – | 1.79 nM | EC50 [21]: 4.28 nM; EC50 [22]: 19.9 nM
B6 | – | – | – | – | 8030 | – | – | 13.9 nM | – | 512 nM | – | – | – | 19.5 nM | no binding (tested: 200 nM) | – | 11.4 nM | – | – | – | –
